According to the DeepSol protein solubility set:

Assay: soluble on expression in E. coli; label from the status in PepcDB or PDB records

Sequence	soluble on expression in E. coli
MEELRFNSVFDIIGPVMIGPSSSHTAGAARIGKVVRSIFGQQPDSVDIYLYESFAKTYRGHGTDIALVGGLLGMEPDDEQLSNSLEIAYEQGMEVCFIPKSEKADHPNSVKIVVSSGDRKLSVTGISIGGGNIQISELNGFKLSLSMGTPTFIVVHQDVPGMIAKVTNILSASDINISTMTVTRESKGEKAIMIIEVDQAEVGDIVMQLAEIPHIYSVNYFD	not soluble
SGARRMETDYNPVELSSMSGFEEGSELNGFEGADMKDMQLEAEAVVNDVLFAVNHMFVSKSMPCADDVAYINVETKERNRYCLELTEAGLRVVGYAFDQVEDHLQTPYHETVYSLLDTLSPAYREAFGNALLQRLEALKRDGQS	soluble
MAPKFTLNQERDNDRERTRASYNNDRRRNDYDPRACYKCGKLGHFARSCHVVTQPTTAYITCYFCSEEGHRSNGCPNKRTDQVNPKGHCYWCGNQDHRFNLIIWRSRCLFRLMKPKYAF	soluble
MGSDKIHHHHHHMRLNELYSGKNAFIFQGVGIKYQKFLTLLDESQRELLKEYCSIVYKKIKLDLWGYLTRSLSGEYDDKFSDWVSIYTIDCVVYNTYIEDGIKPSVLLGYSMGLITALACGKAISFEEGLELLSMSYNYPKYTSRKDEGMGLVTGMTCSDIKKIIDKNELGDYAYIASENNEYCILVSGMKNRVDKLLSIALTEGALSAKDIDSPYAFHSKYALIGIEEYEKLVSRLCVCNLKIPIISSYDQRIIVDSCELKKELVKNVWGEMKWMASVEKAININNYNFFEVSLIDSISRFSRMINSNCKFFTYKSFMKIKNVQVQN	not soluble
KGGVWRNTEDEILKAAVMKYGKNQWSRIASLLHRKSAKQCKARWYEWLDPSIKKTEW	soluble
MHWRLTVLFFASAQLSEGCLPMVPPEEPVTPVPVCPAGWFQFQRATGLWCYIFATPGAGWTTPQAACQANYGANLNGFESAAERTQFIQDMLASNLAPYTFVHIGAMRQCAPCTVNDPFVWLNGVSNDNTFANDYDSLYDLTGDCLSMDLGNNGQYNDITCDAETAYSCGKPAA	not soluble
HLQTKTAAKTGEGLSESAIHRTFQQLASGFDTIYGGFGQAPKFPMPHMLMYLLRYDHNTGQENALYNVTKTLDSMANGGIYDHIGYGFARYSTDDEWLVPHFEKMLYDNALLLTAYTEAYQVTQNSRYKEICEQIITFIQREMTHEDGSFFSALDADTEGEEGKYYVWSKEEILKTLGDDLGTLYCQVYDITEEGNFEGKNIPNLIHTKREQIKEDAGLTEKELSLKLEDARQQLLKTREERTYPHVDDKVLTSWNALMIAGLAKAAKVYQEPKYLSLAKDAITFIENKLIIDGRVMVRYRDGEVKNKGFIDDYAFLLWAYLDLYEASFDLSYLQKAKKLTDDMISLFWDEEHGGFYFTGHDAEALIVREKEV	not soluble
MELAVHDATEDGAGYATAASSWVVVEPEFVVDVTDIRSFVQCPRLYYLNKLSGLPLKYPVTKGTIVHEVFGDLLRGRDLEASVAQRVDEAGLELGLLGRSRAEVEADVRDNASAIEGWLQQGRLTDEDEWRSEYTLVSERFGIKGRCDAIRRGMPVELKTGKNTNREPRFHDKVQAACYALMLDEHGVPADTGTLLYTKNAAVDRSEASGDLSPAKEFSIGRGFLEFVVRERNHLAALEASDGPPTGYEADAKCDYCFEQDTCMVVSGRLDQESKAGRIGDPVPAEERAYFDELYDAIEAERGAIHDEYRKLWEQSPDERAADDRAVVGLSPAEQTELPDGRWRLTATRPGSAASKIREGDRVLASDGDPVAGRAEMARVERLDADRVEVTTDEPVSLCRLDVYPSELSVDRMLTALHDAVLKSDQRRTDLLFDRASPRFEGGDHDLIPNNDAQNAAVNRALNAEDFALVHGPPGTGKTYTIATLVQAFVARGDRVLVSAFTNRAVDNALDALRQQGHEDIVRVGTETGVRADMQDLRLDRSGDPGERAAALRSAPVVAATTATCGSRILRELEFDVVLVDEASQLTEPDTLAAINRGARFVLVGDHEQLPPVVRSGGRLSKSLFERLHETYPEASVMLDQQYRMSQRIQAFSSREFYDGQLRPASSEVAGQRLTDVGVDPGGAVHGGVTFYDVPGTDDAHVDPAEADRVADVVTAYVDAGLDPGEIGVIAPFRAQVAEIGRRTPAGVAVDTVDRFQGSSKEVIVVSFVARGTLEGPIFEDHRRVNVALSRAKKSLVLVGDERALRSEPLYDRMIDWADMELEHHHHHH	not soluble
MSSVPKNKDELELAINSIFPKLMVDYRSIPESKARKVGVEGNVKGTFISVSDTVAYLIGWGKLVLKWHRLKSQNQHVDFPETGYKWNQLGLLAESFHEEYRDWKYSDLLVELEFTINEILLLISSLSDHELYGVAWYEQWTLGRMIQFNTSSPMKNMRTKVRRFNREFTLEHHHHHH	not soluble
MGSDKIHHHHHHMSNTGSLSYLRILDFTGEIGPYAAKLYAGLGADVIHIEPIAGDTLRSTGPFFGNRPGKERSMQFIYYNAGKRGLVLDLKKEKGKEVFVDLCKGADILFESFTPGYLDELGLSFDVLSAANPKLVQTSITPFGSFGPYSTYPGSDLTCSALGGFLYLAGIDNDKPVRACDNQAYRMAEVYAAVGSSIALLFAQKTGVGQFVDVSCMEAVGMALETAAQCWDLEGTLRRGRGKEAGSATIHPCKDGFIAIVAIVGRNKTMWTPFVQWMKEEGVEEWELFDNDNWINASYRESKAGYELFCRIFERFTMKHTKQYLYDAGQAHRVAVSPVSNGKDLLENPQLNHHDFWQRLYHEPVGAEVVCPGAPYEFGHLKWRLGDFAPTFGQHTAEVLGECGYSRSEIDALDREGVVHVAKS	not soluble
MGSDKIHHHHHHMKTLCTHSLPKEKMPYLLRSGEGERYLFGRQVATVMANGRSTGDLFEIVLLSGGKGDAFPLHVHKDTHEGILVLDGKLELTLDGERYLLISGDYANIPAGTPHSYRMQSHRTRLVSYTMKGNVAHLYSVIGNPYDHAEHPPYASEEVSNERFAEAAAVADIVFLDEAKPACSAKLAELTELPDGAVPYVLESGEGDRLLTGDQLHRIVAAQKNTDGQFIVVSSEGPKGDRIVDHYHEYHTETFYCLEGQMTMWTDGQEIQLNPGDFLHVPANTVHSYRLDSHYTKMVGVLVPGLFEPFFRTLGDPYEGHIFPCEPQALRFDRILQNIEALDLKVMKP	not soluble
MSLCDVLQMARSTYYYEAKIRDDQDEELSELIVDIFKNSRDNYGQRKIKIELRKKGWTVSRRRIGRIMKEQGLVSKYTVAQFKPAKTSCNESEIGNTLNREFNQEQELKVVVSDLTYVRVQQKWHYICVLVDLYNREIIGYSAGPHKSAELVQRAFASVKYNLQRLELFHTDRGSEFKNKLIDQALETFGIERSLSEKGTPYDNAVAEATFKTIKTEFVRGAVFSSQQELDLELFDYVHWFNTIRIHGSLDYLTPTEYKLMNLEGHHHHHH	not soluble
MIFNVRGENLEVTPALREYVEKKVGKLERYFDTTPVADVNVRMQVLNNLHIIEVTIPMSRLLLRAEEKHSDMYAAIDLVIEKLERQIRKHKTKVNRKFRQEGSLKYMFKNDLEPMDGMREEILLEEEDDLQVVRKKRFNLKPMDTEEAILQMDMLGHNFFVFSNAISGDTNVVYRRKDGKYGLIEPELEHHHHHH	soluble
MGSDKIHHHHHHVNAIQVPDAPVVLSTASVYPEKTPAAFEIAAELGYDGIEVMVTADPVSQDIDMLRRLSEYHQIPITAIHAPCLIFTQRVWGRDPWIKLIKSKEMAEALGATTVVVHPAFKWQREYAREFESGILKMRDETDVIFAVENMYQVRMRGKEVVPYAPSWNPLDRDYPNVTLDLSHTAMSQSDAMDMARQLGDRLSHVHLADGVGGQNFDEHLIPGRGNQPCAELLEHLANNDYRGQIVLEVNTRKSDRETRLTELAEALAFTRLHFARSVPPEPRSEQPEREQIVVRSVPAPALRVFSVHSDGTVSTD	not soluble
MNLEGLEMIAVLIVIVLFVKLLEQFGLIEAGLEDSVEDELEMATVRHRPEALELLEAQSKFTKKELQILYRGFKNECPSGVVNEETFKEIYSQFFPQGDSTTYAHFLFNAFDTDHNGAVSFEDFIKGLSILLRGTVQEKLNWAFNLYDINKDGYITKEEMLDIMKAIYDMMGKCTYPVLKEDAPRQHVETFFQKMDKNKDGVVTIDEFIESCQKDENIMRSMQLFENVI	soluble
MREYKVVVLGSGGVGKSALTVQFVTGTFIEKYDPTIEDFYRKEIEVDSSPSVLEILDTAGTEQFASMRDLYIKNGQGFILVYSLVNQQSFQDIKPMRDQIVRVKRYEKVPLILVGNKVDLEPEREVMSSEGRALAQEWGCPFMETSAKSKSMVDELFAEIVRQMNYSSLPEKQDQCCTTCVVQ	not soluble
MTLMGFRVKKVRNHVLWDKENDDRNAFTVIIGNNGCGKTELLIDTCNKYHSYYTSALLDKDTHVASAVHYLREDFSPHNWKTVEREYGHRLPRKLIAASTSQFEKFKANWSVRNDLVPSGFYAYIGSKPYMPSLSPSTRIASKAIQQLLGAEYFEERKHKALVGFLSKFDFGQKLLLKFELTFPNEDLENIQNQSLTEPETQLILKNAYIEHDEMELVELLGYCERIIEAPAFALTVGNQNLNLIHLKGSEQKPFSKLIISRMLRAGLITLSSIQTMKDKSLINDQSTVNIESSAISSLSKRSSGEQ	not soluble
MSLLEVKNLRIEYPSRHGVHAAVKSLTLDIQRGEIVGVVGESGAGKSTVGNAVIDLLSPPGTIAGGEVYLNGEKISGLSPQAMREVRGSKIGFIFQDPMTSLNPLFTVEHQLTETIHANMQVSAEEAYQRALSLMKQVGIPQPENRLKQYPHQFSGGMRQRVVIAIALAGEPDLIIADEPTTALDVSIQDQILNLIRELCKKNNVGCMLVTHDMGVVSNVTDRVAVMYRGDLVEFGPTAKVLGTPEHPYTRSLISAVPRSDRKLDRFPLVSYIEEAKELKPLDVKSHWLGQSQDHRKYTGPLLKVENVNLRFVTKDSLFESRREYVQASNNVSFAVHEGETFGLVGESGSGKSTIARVIAGLYQPNAGRVTFEGIDLTALKSEHERRPLRRQMQMVFQNPYTSMNPRMKIFDIIAEPIRFHKLTRSESETRQIVNDLLEHVGLGKMAGLKYPHEFSGGQRQRISIARALATRPRLLICDEPTSALDVSVQAQILNLLKDLQDELNLTMLFISHDLPVIRQMCDRVGVMQMGTLLEVAPTEQLFTDPQHEYSKKLISLMPEFTGLRESTTAA	not soluble
MDSTMTNYMGQENLPPALKLINDKSYQYSTHKHNIETSNDGTLHSYTIVLSREPLESPTSYNKYQKNVEPVQKENQKPKDLNKMTAGPHIAVKNSSGLVSQISSTTSSERKRRTLARPSSSSESDLKVGNIQQSNQYFTLPSVMKPSALSTEDPKKVIVQSNTSSSSMSDASSKKSLPTYTYLSGHTTGSARYVTMVNVKFLLLHCDVLQRRAQSMFTDEFPSDCRLEEVVINFHQLCCRQLLDQNFNPRLSYCIGELNYSDSKPVSANDMSKTLAQLATTQSIAQLSIIVDVTEKNMKLK	not soluble
MAHHHHHHMVLLKILKKIKDNKRNLRILILGLDNAGKTTIIKRLLGEDIYSVSPTFGFNIETLEFGNNILNIWDIGGQKSIRHFWKNYYEDVDGIIFVVDSTDLFRLQLCSFELKQILKEERLYGSTLLILSNKVDIDKSLTINQIVEILKLNEMNMDRHWCINECSAFSGKGLLKSFMWLIDDITDRIDS	not soluble
MGHHHHHHSHMKPSGEDQAALAAGPWEECFQAAVQLALRAGQIIRKALTEEKRVSTKTSAADLVTETDHLVEDLIISELRERFPSHRFIAEEAAASGAKCVLTHSPTWIIDPIDGTCNFVHRFPTVAVSIGFAVRQELEFGVIYHCTEERLYTGRRGRGAFCNGQRLRVSGETDLSKALVLTEIGPKRDPATLKLFLSNMERLLHAKAHGVRVIGSSTLALCHLASGAADAYYQFGLHCWDLAAATVIIREAGGIVIDTSGGPLDLMACRVVAASTREMAMLIAQALQTINYGRDDEK	not soluble
MNEQGVIFNSNGKQLVGIEHLPEPIHQGQTNKGVIIVVGGPQTRVGSHRLFVHLARALAKQRIVVFCFDYSGAGDSEGTVSTFTDIQDDIEAAFTPLSSAIVILLSWLDGAYAMLHRPFCFTSMSALNKRR	not soluble
